Results reported in US10836815B2, “Generation and comparative kinetic analysis of new glycosynthase mutants from Streptococcus pyogenes endoglycosidases for antibody glycoengineering” (UNIVERSITY OF MARYLAND, COLLEGE PARK, priority 2017, dated 2020).
“Also recorded” adds a separate entry of the source.

Tests used:
Type in all cases: biochemical
[1] = system: deglycosylated rituximab; experiment: Kinetic measurements (KM, Vmax) of Endo-S/Endo-S2 mutants for deglycosylated rituximab
From the text: (§1) Peptide-N-Glycosidase F (PNGase F) treated rituximab was used as the internal standard due to its similarities to the deglycosylated and transferred product in terms of their molecular structures and ionization efficiencies. After PNGase F treatment, a mutation will be introduced into the amino acid sequence of rituximab so the product antibody will not interfere with the reaction via re-glycosylation^35. A standard product S2G2F-rituximab was synthesized following the previously reported procedure^29. […] Serial dilutions containing a gradient of S2G2F-rituximab (0, 0.25, 0.5, 0.75, 1.0, 1.25 and 1.5 μM) were mixed with a stock solution containing 0.67 μM internal standard. These mixed sample solutions were quantified by selected ion monitoring (SIM) to calculate the single-point normalization factor^31. The factor could then be used to calculate the relative amount of the final product N-glycoform for each reaction in the following experiments.
(§2) Measurements of KM and Vmax for SCT-oxa. Serial dilutions with a total volume of 10 μL were prepared with a gradient of SCT-oxa concentrations and a constant deglycosylated antibody concentration mixed in PBS, pH 7.4. Each reaction was initiated by adding 1μμL, of Endo-S/S2 mutants with a concentration of 0.1 mg/M1 and the reaction was conducted at 30° C. The concentrations of SCT-oxa were within a range from 6.25 μM to 400 μM. For each reaction, three aliquots were taken at t=1, 2 and 3 min and immediately quenched in 100 μL 0.1% formic acid. The quenched reaction samples were then characterized by ESI-MS, and the concentration of product in each mixture was calculated using the normalization factor, as shown above. A linear progression curve was confirmed for each reaction by sampling at multiple early time points and plotting them in the same graph, which emphasized that the V0 measured indeed represents the initial rate of each reaction. The KM and Vmax were measured by fitting the initial velocity against the SCT-oxa concentration using the GraphPad Prism7 program. The experiments were conducts in triplicate to determine the error in these measurements.
The KM and Vmax values of both Endo-S and Endo-S2 mutants for the deglycosylated antibody substrate were measured in a similar fashion as to those for SCT-Oxa. In the serial reactions, the concentrations of antibody range from 0.313 μM to 20 μM, whereas the SCT-Oxa concentration was fixed at 400 μM. A similar control reaction was also performed for each concentration to monitor the non-enzymatic side reactions.

[2] = system: deglycosylated rituximab; experiment: Time-course comparison of transglycosylation with SCT-Oxazoline monitored by LC-ESI-MS (FIG. 1); details: D233M, D233Q, D233A compared with glycan oxazoline under same conditions
From the text: The data sets presented here are representative of three independent experiments.
The parallel reactions were monitored by LC-ESI-MS (FIG. 1).

[3] = system: deglycosylated rituximab; experiment: Transglycosylation activity assay of Endo-S and D233 mutants, LC-ESI-MS
Procedure: (§3) The hydrolytic activity of the mutants generated was evaluated using rituximab as the substrate, and the transglycosylation activity was evaluated using the sugar oxazoline and the deglycosylated rituximab as the donor and acceptor substrates, respectively (Scheme 1).
(§4) The LC-MS characterization of different antibody glycoforms was conducted on an Exactive Plus Orbitrap instrument (Thermo Scientific). The intact antibody sample was analyzed with a Waters XBridge™ BEH300 C4 column (3.5 μm, 2.1×50 mm). The program includes a 9 min linear gradient of 5-90% MeCN containing 0.1% formic acid at a flow rate of 0.4 mL/min. The original mass data were processed through deconvolution and integration through MagTran Software (Amgen).
as §1
(§5) The hydrolytic activity of each Endo-S mutants and the wild-type (0.01 mg/mL) was assayed in PBS (pH 7.4, 10 μl) at 30° C. with synthetic biantennary sialo-complex-type rituximab (1.0 mg/mL, 6.9 μM) as the starting material. Each reaction was terminated at 5 min and an aliquot was taken from the reaction mixture and dissolved in 0.1% formic acid. The relative quantity of the hydrolysis product was calculated through deconvolution and integration of the selected MS peaks. The experimental details of product quantification using LC-MS are illustrated below. The transglycosylation activity of Endo-S was measured in a similar fashion: deglycosylated Rituximab (10.0 mg/mL, 69 μM) was incubated with SCT-Oxa (1.38 mM, 20 eq) under catalysis of Endo-S enzymes (0.01 mg/mL) under the same condition as hydrolysis. The transglycosylation product SCT-Rituximab was analyzed as mentioned above. Both functional assays were repeated twice for each mutant and the wild-type, and the average activity was recorded

[4] = Kinetic measurements (KM, Vmax) of Endo-S/Endo-S2 mutants for SCT-Oxa
Procedure: Using a sialylated glycan oxazoline (SCT-Oxa) as the donor and the deglycosylated rituximab as the acceptor substrate, we measured the kinetic parameters of the enzyme catalyzed glycosylation were measured. A mass spectrometry-based approach with an internal standard was used to estimate the product formation.^31-33.
as §1
as §2, with “A linear progression curve was confirmed for each reaction by sampling at multiple early time points and plotting them in the same graph, which emphasized that the V0 measured indeed represents the initial rate of each reaction.” left out

[5] = system: rituximab; experiment: Hydrolysis activity assay of Endo-S and D233 mutants, LC-ESI-MS
Procedure: as §3, §4, §1, §5

[6] = Endo-S mutants, acceptor substrate deglycosylated rituximab, SCT-Oxa fixed at 400 μM
[7] = Endo-S mutants, donor substrate SCT-Oxa, PBS pH 7.4, 30° C.

B1: Endo-S D233M (protein)
chain: MDKHLLVKRTLGCVCAATLMGAALATHHDSLNTVKAEEKTVQVQKGLPSIDSLHYLSENSKKEFKEELSKAGQESQKVKEILAKAQQADKQAQELAKMKIPEKIPMKPLHGPLYGGYFRTWHDKTSDPTEKDKVNSMGELPKEVDLAFIFHDWTKDYSLFWKELATKHVPKLNKQGTRVIRTIPWRFLAGGDNSGIAEDTSKYPNTPEGNKALAKAIVDEYVYKYNLDGLDVMVEHDSIPKVDKKEDTAGVERSIQVFEEIGKLIGPKGVDKSRLFIMDSTYMADKNPLIERGAPYINLLLVQVYGSQGEKGGWEPVSNRPEKTMEERWQGYSKYIRPEQYMIGFSFYEENAQEGNLWYDINSRKDEDKANGINTDITGTRAERYARWQPKTGGVKGGIFSYAIDRDGVAHQPKKYAKQKEFKDATDNIFHSDYSVSKALKTVMLKDKSYDLIDEKDFPDKALREAVMAQVGTRKGDLERFNGTLRLDNPAIQSLEGLNKFKKLAQLDLIGLSRITKLDRSVLPANMKPGKDTLETVLETYKKDNKEEPATIPPVSLKVSGLTGLKELDLSGFDRETLAGLDAATLTSLEKVDISGNKLDLAPGTENRQIFDTMLSTISNHVGSNEQTVKFDKQKPTGHYPDTYGKTSLRLPVANEKVDLQSQLLFGTVTNQGTLINSEADYKAYQNHKIAGRSFVDSNYHYNNFKVSYENYTVKVTDSTLGTTTDKTLATDKEETYKVDFFSPADKTKAVHTAKVIVGDEKTMMVNLAEGATVIGGSADPVNARKVFDGQLGSETDNISLGWDSKQSIIFKLKEDGLIKHWRFFNDSARNPETTNKPIQEASLQIFNIKDYNLDNLLENPNKFDDEKYWITVDTYSAQGERATAFSNTLNNITSKYWRVVFDTKGDRYSSPVVPELQILGYPLPNADTIMKTVTTAKELSQQKDKFSQKMLDELKIKEMALETSLNSKIFDVTAINANAGVLKDCIEKRQLLKK
substrate affinity for the deglycosylated antibody (in words) ([1]; Asp-to-Met versus Asp-to-Ala mutant): much higher substrate affinity than the D233A mutant | Km [1, 6]: 30.2 ± 7.21 µM | kcat [1, 6]: 0.0922 ± 0.0318 s⁻¹ | Km ([1]; Endo-S mutants, acceptor substrate deglycosylated rituximab, SCT-Oxa fixed at 400 μM, listed as D233M): 30 µM | transglycosylation efficiency in time-course (in words) [2]: more efficient than the previously identified mutants, D233A and D233Q | enhanced synthetic efficiency (T/H) over D233A ([3]; based on Table 1): ~8 fold | enhanced synthetic efficiency (T/H) over D233Q ([3]; based on Table 1): approximately 3 fold | transglycosylation activity (in words) ([3]; biantennary complex-type glycan oxazoline to deglycosylated rituximab): most significant transglycosylation activities; also recorded: relatively high transglycosylation activity | Transglycosylation Activity ([3]; deglycosylated rituximab 10.0 mg/mL, SCT-Oxa 1.38 mM (20 eq), enzyme 0.01 mg/mL, PBS pH 7.4, 30° C., duplicate): 2.71 100*(μmol/min/mg) | Transglycosylation/Hydrolysis Ratio T/H ([3]; ratio of transglycosylation to hydrolysis activity, Table 1): 135.50 | overall efficiency for glycoform synthesis (T/H, in words) ([3]; ratio of transglycosylation/hydrolysis): highest overall synthetic efficiency | Km [4, 7]: 195 ± 7.21 µM | kcat [4, 7]: 0.0832 ± 0.0152 s⁻¹ | increase in kcat/KM over Endo-S D233A ([4]; SCT-Oxa): 3 fold | increase in turnover (kcat) over D233A ([4]; SCT-Oxa): approximately 4 fold | reduced affinity (KM) versus D233A ([4]; SCT-Oxa): less than 2 fold | Specific Hydrolysis Activity ([5]; rituximab 1.0 mg/mL as substrate, enzyme 0.01 mg/mL, PBS pH 7.4, 30° C., 5 min, duplicate): 0.02 100*(μmol/min/mg) | hydrolysis activity (in words) ([5]; rituximab as substrate, compared with wild type Endo-S and other mutants): remarkably low residual hydrolysis activity
